Blank lines part the entries; values can stand above or below the molecule they belong to. Where no end group is shown, it is not given here.
Experiments:
TBL1 F26A (human) [1] = test: SEC
TBL1 F26A (human) [2] = test: NMR HSQC spectra
[3] = target: TBL1 wild type (gel filtration and HSQC; limits not stated) (human); test: SEC
[4] = target: TBL1 wild type (gel filtration and HSQC; limits not stated) (human); test: NMR HSQC spectra
His6-TBL1(1-90) = target: T1, His6-TBL1(1-90) (human, UniProt O60907-2 1-90); test: fluorescence polarisation
T1 sequence (looked up): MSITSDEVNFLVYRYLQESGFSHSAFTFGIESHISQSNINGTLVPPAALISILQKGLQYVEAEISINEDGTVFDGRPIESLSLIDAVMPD

[5] = target: T2, SMRT(167-207), GST removed (human, UniProt Q9Y618 167-207); test: NMR structure
T2 chain (looked up): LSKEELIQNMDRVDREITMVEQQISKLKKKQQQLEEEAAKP

crystal structure = target: the molecule itself; test: crystal structure

B1: BODIPY labeled GPS2(1-52) (peptide, UniProt Q13227 1-52, looked up)
chain: MPALLERPKLSNAMARALHRHIMMERERKRQEEEEVDKMMEQKMKEEQERRK
modifications: also: BODIPY label, position not given here
Kd (His6-TBL1(1-90)): 5.1 µM

B3: His6-TBL1(1-71) (domain or fragment, human, UniProt O60907-2 1-71, looked up)
chain: MSITSDEVNFLVYRYLQESGFSHSAFTFGIESHISQSNINGTLVPPAALISILQKGLQYVEAEISINEDGT
stoichiometry N (crystal structure): 4

B4: BODIPY labeled SMRT(227-260) (peptide, UniProt Q9Y618 227-260, looked up)
chain: VQIIYDENRKKAEAAHRILEGLGPQVELPLYNQP
modifications: also: BODIPY label, position not given here
Kd (His6-TBL1(1-90)): 14.7 µM

Next, values leading:

stoichiometry N (TBL1 F26A (human) [1]): 2
stoichiometry N (TBL1 F26A (human) [2]): 2
Molecule: TBL1 F26A (domain or fragment)

stoichiometry N [3]: 4
stoichiometry N [4]: 4
Molecule: TBL1 wild type (gel filtration and HSQC; limits not stated) (domain or fragment)

binding result [5]: binds
B2: GPS2(53-90) (domain or fragment, human, UniProt Q13227 53-90, looked up)
chain: KKEMEERMSLEETKEQILKLEEKLLALQEEKHQLFLQL
